Data taken from US20060199228A1 (KING S COLLEGE LONDON, published 2006).

biological target: T1, HLA-DR4 immunoaffinity-purified from Priess EBV-transformed B cells (DRB1*0401); test: competition against 2.5 µM biotinylated invariant chain 98-117 for purified HLA-DR4, L243 capture, DELFIA
T1 construct: Detergent-solubilised native protein, purified with the anti-HLA-DR mAb L243; Priess cells also carry DRw53, which the L243 column would not separate; The elution used cells pulsed with preproinsulin; also called soluble HLA-DR4
Experimental: A further selection step was applied based on the following novel initiative. […] HLA-DR4 molecules used in this assay were purified from resting, unmanipulated Priess cell pellets, using the immunoaffinity column approach described above in method 1.1. […] Plates were incubated for a further 1 hour at room temperature and washed 5 times in TBST. Europium-conjugated streptavidin (Perkin Elmer Ltd., Hounslow, UK) was added at 1 μg/ml in dissociation-enhanced time-resolved fluoroimmunoassays (DELFIA) assay buffer (Wallac Oy, Turku, Finland) and incubated for 45 minutes at room temperature. Wells were washed a further 5 times in TBST and 100 μl DELFIA enhancement solution added to each well. Fluorescent intensity was measured in a DELFIA fluorimeter.

Row | Binder | IC50 [nM]
1 | GGGPGAGSLQPLALEGSLQK (Synthetic peptide; also called C13-32) [preproinsulin peptide C13-C32] | 5000
2 | GSLQPLALEGSLQKRGIV (Synthetic peptide; also called PI C19-A3; Proinsulin C19-A3) [preproinsulin peptide C19-A3] | 500
3 | DLQVGQVELGGGPGAGSLQPLALE [preproinsulin peptide C4-C27] | 3000

More lines, in order of falling IC50, values ahead:

Row | IC50 [nM] | Binder
4 | 3000 | EDLQVGQVELGGGPGAGSLQPLAL [preproinsulin peptide C3-C26]
5 | 400 | QPLALEGSLQKRGIVEQ (Synthetic peptide) [preproinsulin peptide C22-A5]
